# Measured values as given in patent US20140072613A1 (published 2014).
# Columns and labels:
# Assay in all cases: cell-based or functional assay
# Pim-3(h) = Pim-3(h) (human, UniProt Q86V86 1-326)
# WNK2(h) = WNK2(h) (human, UniProt Q9Y3S1 166-489, limits assumed)
# RIPK2(h) = RIPK2(h) (human, UniProt O43353 1-299, limits assumed)
# EphA4(h) = biological target: T1, EphA4(h) (human, UniProt P54764 570-986, limits assumed)
# T1 sequence (looked up): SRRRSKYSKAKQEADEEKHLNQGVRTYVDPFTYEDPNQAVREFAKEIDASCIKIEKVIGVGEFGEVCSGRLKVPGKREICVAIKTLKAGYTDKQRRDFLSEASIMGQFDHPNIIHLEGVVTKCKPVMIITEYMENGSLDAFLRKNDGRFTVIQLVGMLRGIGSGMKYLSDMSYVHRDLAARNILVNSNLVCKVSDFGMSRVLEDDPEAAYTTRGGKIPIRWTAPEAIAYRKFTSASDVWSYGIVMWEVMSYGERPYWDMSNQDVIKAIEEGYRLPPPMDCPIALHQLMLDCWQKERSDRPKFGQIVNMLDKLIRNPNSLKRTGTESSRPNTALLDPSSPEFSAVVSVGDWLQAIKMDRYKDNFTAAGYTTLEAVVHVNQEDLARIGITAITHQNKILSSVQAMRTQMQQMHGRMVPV
# PRK2(h) = PRK2(h) (human, UniProt Q16513 501-984, limits assumed)
# CDK2/cyclinA(h) = CDK2/cyclinA(h) (human, UniProt P24941 1-298; P20248 1-432)
# EphA2(h) = biological target: T2, EphA2(h) (human, UniProt P29317 559-976, limits assumed)
# T2 sequence (looked up): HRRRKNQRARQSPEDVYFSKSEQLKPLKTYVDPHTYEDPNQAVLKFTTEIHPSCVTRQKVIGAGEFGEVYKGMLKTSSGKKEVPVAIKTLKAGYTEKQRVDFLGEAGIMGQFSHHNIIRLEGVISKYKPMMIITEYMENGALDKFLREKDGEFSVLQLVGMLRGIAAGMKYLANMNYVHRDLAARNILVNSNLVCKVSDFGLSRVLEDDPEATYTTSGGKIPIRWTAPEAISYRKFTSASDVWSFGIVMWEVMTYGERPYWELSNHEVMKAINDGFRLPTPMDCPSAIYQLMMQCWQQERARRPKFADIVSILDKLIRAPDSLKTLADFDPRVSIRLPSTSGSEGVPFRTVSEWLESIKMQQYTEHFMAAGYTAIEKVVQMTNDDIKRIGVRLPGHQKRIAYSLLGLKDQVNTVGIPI
# IR(h) = IR(h) (human, UniProt P06213 1005-1310, limits assumed)
# ZIPK(h) = ZIPK(h) (human, UniProt O43293 1-454, limits assumed)
# EGFR(h) = EGFR(h) (human, UniProt P00533 696-1210, limits assumed)
# DRAK1(h) = biological target: T3, DRAK1(h) (human, UniProt Q9UEE5 1-414, limits assumed)
# T3 sequence (looked up): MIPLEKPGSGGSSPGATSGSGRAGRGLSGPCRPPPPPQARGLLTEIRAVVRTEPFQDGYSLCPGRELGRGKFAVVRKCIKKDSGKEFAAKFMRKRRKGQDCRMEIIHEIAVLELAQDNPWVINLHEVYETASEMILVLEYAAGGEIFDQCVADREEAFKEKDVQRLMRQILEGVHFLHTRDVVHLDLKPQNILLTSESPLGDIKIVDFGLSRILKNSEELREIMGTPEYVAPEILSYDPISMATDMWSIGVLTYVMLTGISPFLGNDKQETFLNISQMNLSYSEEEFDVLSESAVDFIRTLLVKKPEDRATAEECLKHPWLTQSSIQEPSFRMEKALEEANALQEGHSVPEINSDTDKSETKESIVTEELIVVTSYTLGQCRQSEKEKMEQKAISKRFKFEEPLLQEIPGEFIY
# IRAK1(h) = IRAK1(h) (human, UniProt P51617 194-712, limits assumed)
# Mnk2(h) = Mnk2(h) (human, UniProt Q9HBH9 1-465, limits assumed)
# GRK7(h) = biological target: T4, GRK7(h) (human, UniProt Q8WTQ7 1-553)
# T4 sequence (looked up): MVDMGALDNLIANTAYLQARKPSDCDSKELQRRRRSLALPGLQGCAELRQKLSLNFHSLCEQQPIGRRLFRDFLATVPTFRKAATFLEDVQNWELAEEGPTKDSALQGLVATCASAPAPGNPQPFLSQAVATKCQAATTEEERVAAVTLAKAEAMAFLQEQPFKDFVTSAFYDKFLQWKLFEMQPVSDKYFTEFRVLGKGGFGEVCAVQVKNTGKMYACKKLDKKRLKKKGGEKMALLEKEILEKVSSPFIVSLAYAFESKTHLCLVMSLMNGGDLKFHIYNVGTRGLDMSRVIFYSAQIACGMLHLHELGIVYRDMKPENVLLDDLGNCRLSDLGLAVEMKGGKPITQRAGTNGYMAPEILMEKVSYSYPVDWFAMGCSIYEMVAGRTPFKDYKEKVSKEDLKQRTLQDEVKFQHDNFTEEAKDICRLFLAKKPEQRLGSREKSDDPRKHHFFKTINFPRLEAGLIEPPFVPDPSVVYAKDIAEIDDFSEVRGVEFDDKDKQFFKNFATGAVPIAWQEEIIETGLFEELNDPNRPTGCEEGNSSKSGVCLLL
# Chain of PRK2(h) (Q16513 501-984 limits assumed): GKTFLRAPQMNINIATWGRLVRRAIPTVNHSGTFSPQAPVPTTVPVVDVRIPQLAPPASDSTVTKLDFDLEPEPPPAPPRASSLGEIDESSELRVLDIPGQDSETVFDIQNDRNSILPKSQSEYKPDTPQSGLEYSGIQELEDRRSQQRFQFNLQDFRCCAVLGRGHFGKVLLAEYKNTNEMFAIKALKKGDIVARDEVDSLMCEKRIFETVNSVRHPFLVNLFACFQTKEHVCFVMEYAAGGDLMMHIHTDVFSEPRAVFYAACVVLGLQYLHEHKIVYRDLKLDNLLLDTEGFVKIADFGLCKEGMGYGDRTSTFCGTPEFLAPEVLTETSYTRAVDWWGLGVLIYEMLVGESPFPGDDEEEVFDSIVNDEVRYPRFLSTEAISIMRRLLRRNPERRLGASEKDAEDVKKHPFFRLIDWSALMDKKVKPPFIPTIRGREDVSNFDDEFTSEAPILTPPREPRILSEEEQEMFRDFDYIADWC
# Chain of WNK2(h) (Q9Y3S1 166-489 limits assumed): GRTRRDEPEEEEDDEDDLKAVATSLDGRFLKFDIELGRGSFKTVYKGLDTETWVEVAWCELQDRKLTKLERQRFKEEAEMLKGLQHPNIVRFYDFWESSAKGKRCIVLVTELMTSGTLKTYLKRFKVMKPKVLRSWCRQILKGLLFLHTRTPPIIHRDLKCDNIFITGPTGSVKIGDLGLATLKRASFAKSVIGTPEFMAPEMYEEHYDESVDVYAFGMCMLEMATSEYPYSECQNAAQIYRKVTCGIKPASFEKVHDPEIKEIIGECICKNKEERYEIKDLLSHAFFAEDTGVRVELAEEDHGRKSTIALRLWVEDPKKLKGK
# Chain of IRAK1(h) (P51617 194-712 limits assumed): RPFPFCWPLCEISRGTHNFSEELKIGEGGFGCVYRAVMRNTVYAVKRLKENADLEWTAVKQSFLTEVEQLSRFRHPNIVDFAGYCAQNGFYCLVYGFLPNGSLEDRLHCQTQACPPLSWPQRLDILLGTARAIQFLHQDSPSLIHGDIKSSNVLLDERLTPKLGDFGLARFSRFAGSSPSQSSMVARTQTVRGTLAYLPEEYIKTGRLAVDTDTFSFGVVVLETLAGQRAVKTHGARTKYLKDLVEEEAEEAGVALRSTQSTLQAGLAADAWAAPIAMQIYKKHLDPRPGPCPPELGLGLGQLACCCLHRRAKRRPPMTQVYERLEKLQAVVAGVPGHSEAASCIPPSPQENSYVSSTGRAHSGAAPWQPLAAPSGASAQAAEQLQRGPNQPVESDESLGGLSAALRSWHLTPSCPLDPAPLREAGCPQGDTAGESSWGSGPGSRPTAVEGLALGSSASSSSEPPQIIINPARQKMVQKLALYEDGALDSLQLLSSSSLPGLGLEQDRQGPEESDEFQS
# Chain of RIPK2(h) (O43353 1-299 limits assumed): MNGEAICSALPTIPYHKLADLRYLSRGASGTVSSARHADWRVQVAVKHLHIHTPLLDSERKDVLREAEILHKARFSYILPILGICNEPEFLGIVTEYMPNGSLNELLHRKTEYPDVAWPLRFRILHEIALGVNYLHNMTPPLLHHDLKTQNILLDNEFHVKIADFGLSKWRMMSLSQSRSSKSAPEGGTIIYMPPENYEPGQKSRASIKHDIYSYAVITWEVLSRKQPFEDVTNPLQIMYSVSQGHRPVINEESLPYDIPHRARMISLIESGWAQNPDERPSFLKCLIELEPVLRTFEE
# Chain of Mnk2(h) (Q9HBH9 whole entry): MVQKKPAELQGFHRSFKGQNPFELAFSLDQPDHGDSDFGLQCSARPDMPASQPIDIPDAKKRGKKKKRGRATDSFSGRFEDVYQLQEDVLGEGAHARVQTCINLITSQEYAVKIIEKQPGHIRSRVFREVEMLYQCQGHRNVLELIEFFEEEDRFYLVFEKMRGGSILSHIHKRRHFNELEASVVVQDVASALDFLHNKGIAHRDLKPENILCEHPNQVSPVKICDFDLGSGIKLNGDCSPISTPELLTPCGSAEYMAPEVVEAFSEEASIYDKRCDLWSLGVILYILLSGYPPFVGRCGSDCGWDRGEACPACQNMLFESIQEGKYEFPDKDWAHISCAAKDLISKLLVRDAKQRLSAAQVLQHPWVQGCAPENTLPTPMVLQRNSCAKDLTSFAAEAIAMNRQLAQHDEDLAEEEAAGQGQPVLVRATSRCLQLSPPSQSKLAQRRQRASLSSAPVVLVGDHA
# Chain of ZIPK(h) (O43293 whole entry): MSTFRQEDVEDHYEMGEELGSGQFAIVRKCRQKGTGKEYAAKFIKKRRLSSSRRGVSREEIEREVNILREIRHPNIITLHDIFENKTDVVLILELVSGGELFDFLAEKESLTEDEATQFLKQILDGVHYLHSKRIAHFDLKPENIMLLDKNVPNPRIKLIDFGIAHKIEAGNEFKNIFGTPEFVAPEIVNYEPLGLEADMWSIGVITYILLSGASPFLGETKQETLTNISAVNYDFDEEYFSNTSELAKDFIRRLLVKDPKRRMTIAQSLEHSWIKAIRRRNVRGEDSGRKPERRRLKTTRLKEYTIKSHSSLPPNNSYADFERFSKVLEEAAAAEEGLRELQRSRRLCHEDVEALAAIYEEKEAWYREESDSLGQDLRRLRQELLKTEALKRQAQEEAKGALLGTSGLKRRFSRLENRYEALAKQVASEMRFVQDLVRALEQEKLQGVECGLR
# Chain of IR(h) (P06213 1005-1310 limits assumed): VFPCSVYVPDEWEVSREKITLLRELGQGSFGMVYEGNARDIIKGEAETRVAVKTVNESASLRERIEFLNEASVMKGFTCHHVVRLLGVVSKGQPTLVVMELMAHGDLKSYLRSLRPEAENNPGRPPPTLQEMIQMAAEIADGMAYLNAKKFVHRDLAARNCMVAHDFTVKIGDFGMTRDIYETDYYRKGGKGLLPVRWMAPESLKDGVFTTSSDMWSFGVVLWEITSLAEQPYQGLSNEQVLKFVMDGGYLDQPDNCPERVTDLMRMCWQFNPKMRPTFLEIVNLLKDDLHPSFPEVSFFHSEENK
Binder,"% activity, 100 µM (Pim-3(h)) [%]","% activity, 100 µM (WNK2(h)) [%]","% activity, 100 µM (RIPK2(h)) [%]","% activity, 100 µM (EphA4(h)) [%]","% activity, 100 µM (PRK2(h)) [%]","% activity, 100 µM (CDK2/cyclinA(h)) [%]","% activity, 100 µM (EphA2(h)) [%]","% activity, 100 µM (IR(h)) [%]","% activity, 100 µM (ZIPK(h)) [%]","% activity, 100 µM (EGFR(h)) [%]","% activity, 100 µM (DRAK1(h)) [%]","% activity, 100 µM (IRAK1(h)) [%]","% activity, 100 µM (Mnk2(h)) [%]","% activity, 100 µM (GRK7(h)) [%]"
FAKLAARLYRKALARQLGVAA [MMI-0300],80,64,97,88,33,86,31,96,28,21,14,95,89,122
KAFAKLAARLYRKALARQLGVAA [MMI-0400],80,54,98,65,27,92,17,85,13,16,14,93,86,100
